Measurements from US20100075385A1 (DONALD DANFORTH PLANT SCIENCE CENTER, published 2010).

B1: Papaver somniferum (R,S)-reticuline 7-O-methyltransferase (PSOMT1), recombinant, His-tagged subunit (enzyme)
chain: MDTAEERLKGQAEIWEHMFAFVDSMALKCAVELGIPDIINSHGRPVTISEIVDSLKTNTPSSSPNIDYLTRIMRLLVHKRLFTSELHQESNQLLYNLTRSSKWLLKDSKFNLSPLVLWETNPILLKPWQYLGKCAQEKSSPFERAHGCEIWDLALADPKFNNFLNGAMQCSTTTIINEMLLEYKDGFSGIAGSLVDVGGGTGSIIAEIVKAHPHIQGINFDLPHVVATAAEFPGVKHVGGDMFVDIPEADAVIMKWILHDWSDEDCTIILKNCYRAIRKKKNGKVIIVDCVLRPDGNDLFDKMGLIFDVLMMAHTTAGKERTEAEWKILLNNAGFPRYNVIRTPAFPCIIEAFPE
notes: Full-length open reading frame expressed in Sf9 cells with an N-terminal His tag and purified on cobalt resin; GenBank AY268893 is printed for it; also called Pso7OMT; Ps7OMT; not shown: six histidine residues elongating the amino terminus (pFastBac HTa vector)
B2: Papaver somniferum (R,S)-norcoclaurine 6-O-methyltransferase (PSOMT2), recombinant, His-tagged subunit (enzyme)
chain: METVSKIDQQNQAKIWKQIYGFAESLVLKCAVQLEIAETLHNNVKPMSLSELASKLPVAQPVNEDRLFRIMRYLVHMELFKIDATTQKYSLAPPAKYLLRGWEKSMVDSILCINDKDFLAPWHHLGDGLTGNCDAFEKALGKSIWVYMSVNPEKNQLFNAAMACDTRLVTSALANECKSIFSDGISTLVDVGGGTGTAVKAISKAFPDIKCTIYDLPHVIADSPEIPNITKISGDMFKSIPSADAIFMKCILHDWNDDECIQILKRCKEALPKGGKVIIVDVVIDMDSTHPYAKIRLTLDLDMMLNTGGKERTKEEWKTLFDAAGFASHKVTQISAVQSVIEAYPY
notes: Full-length open reading frame expressed in Sf9 cells with an N-terminal His tag and purified on cobalt resin; GenBank AY268894 is printed for it; also called Pso6OMT; Ps6OMT; not shown: six histidine residues elongating the amino terminus (pFastBac HTa vector)

Molecular target: the molecule itself
Experiment: gel filtration on a calibrated Sephacryl 200 column; self-association of the subunit (43 kDa by SDS-PAGE) into a homodimer
From the text: Purification and Functional Characterization of Recombinant Enzymes—The PSOMT1 and PSOMT2 cDNAs were each constructed to express the recombinant proteins with six histidine residues elongating the amino terminus. The proteins were then purified from S. frugiperda Sf9 cell culture medium in one step by cobalt affinity chromatography to yield electrophoretically homogeneous proteins. PSOMT1 and PSOMT2 each have relative molecular masses of 43 kDa as determined by SDS-PAGE. This compares with the calculated molecular masses of 39,841 and 38,510 based on the translation of the nucleotide sequences. The native relative molecular masses were determined by gel filtration on a calibrated Sephacryl 200 column (Pharmacia). PSOMT1 and PSOMT2 are each homodimers with an Mr of 85 and 80 kDa, respectively. This is consistent with that observed for norcoclaurine 6-O-methyltransferases of (S)-reticuline biosynthesis in T. tuberosum (4).

| Protein | binding result |
| --- | --- |
| B1 | binds |
| B2 | binds |
